From patent US20050037967A1 (RESEARCH DEVELOPMENT FOUNDATION, published 2005) come the findings set out here.

For test [1], the target named is FLK-1 on PAE/FLK-1 cells. Briefly: cell-based or functional assay.
For test [2], the target named is human FLT-1 receptor (VEGFR-1) on PAE/FLT-1 cells (human) (UniProt P17948). The test is described as follows: cell-based or functional assay.
Test [3] concerns the target Flk-1 on murine brain endothelioma bEnd.3 cells (mouse) (UniProt P35918). The test is described as follows: cell-based or functional assay.
Test [4] has as its target KDR/Flk-1 on adult bovine aortic arch-derived endothelial cells (ABAE) (bovine). The test is described as follows: cell-based or functional assay.
The target in test [5] is Flt-1 on osteoclast precursor cells (RAW 264.7 cells and mouse bone marrow-derived monocytes) (mouse) (UniProt P35969). The test is described as follows: cell-based or functional assay.
Chain of Flt-1 on osteoclast precursor cells (RAW 264.7 cells and mouse bone marrow-derived monocytes) (mouse) (P35969 23-1333 S1181G): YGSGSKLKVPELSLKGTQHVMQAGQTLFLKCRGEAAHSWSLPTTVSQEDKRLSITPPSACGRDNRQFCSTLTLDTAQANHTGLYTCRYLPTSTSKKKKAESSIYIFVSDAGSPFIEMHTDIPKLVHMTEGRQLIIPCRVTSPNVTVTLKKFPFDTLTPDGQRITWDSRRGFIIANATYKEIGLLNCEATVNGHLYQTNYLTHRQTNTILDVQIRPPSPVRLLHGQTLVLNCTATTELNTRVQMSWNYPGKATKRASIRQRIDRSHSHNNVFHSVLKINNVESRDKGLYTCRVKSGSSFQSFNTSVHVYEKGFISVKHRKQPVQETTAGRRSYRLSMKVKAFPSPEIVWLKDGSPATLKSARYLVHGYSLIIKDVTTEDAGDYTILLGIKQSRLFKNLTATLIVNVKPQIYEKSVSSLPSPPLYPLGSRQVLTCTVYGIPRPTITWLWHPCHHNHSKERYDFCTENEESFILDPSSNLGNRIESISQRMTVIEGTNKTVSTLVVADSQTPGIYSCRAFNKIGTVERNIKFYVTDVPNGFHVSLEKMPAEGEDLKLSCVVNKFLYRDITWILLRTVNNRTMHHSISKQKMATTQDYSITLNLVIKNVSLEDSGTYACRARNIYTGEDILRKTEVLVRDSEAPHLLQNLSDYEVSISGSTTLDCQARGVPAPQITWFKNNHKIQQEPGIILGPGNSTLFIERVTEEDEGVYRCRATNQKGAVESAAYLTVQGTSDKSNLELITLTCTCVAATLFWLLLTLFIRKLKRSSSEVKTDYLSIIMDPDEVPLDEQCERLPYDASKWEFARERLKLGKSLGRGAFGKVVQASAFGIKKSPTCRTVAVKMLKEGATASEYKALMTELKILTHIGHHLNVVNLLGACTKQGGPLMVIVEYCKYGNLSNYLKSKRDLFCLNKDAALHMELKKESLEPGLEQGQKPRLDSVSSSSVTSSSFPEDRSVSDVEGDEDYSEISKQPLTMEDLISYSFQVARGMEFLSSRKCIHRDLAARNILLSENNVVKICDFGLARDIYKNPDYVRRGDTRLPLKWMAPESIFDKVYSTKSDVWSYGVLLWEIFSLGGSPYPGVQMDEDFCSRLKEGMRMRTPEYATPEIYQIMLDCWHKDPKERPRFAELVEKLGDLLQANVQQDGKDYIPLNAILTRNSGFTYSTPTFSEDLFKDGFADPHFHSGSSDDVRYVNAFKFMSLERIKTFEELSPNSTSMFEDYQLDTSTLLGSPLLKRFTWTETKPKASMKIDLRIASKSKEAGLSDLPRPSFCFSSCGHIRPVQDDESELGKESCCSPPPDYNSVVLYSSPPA
The target in test [6] is human kinase domain receptor (KDR, VEGFR-2) on cells (human) (UniProt P35968). The test is described as follows: cell-based or functional assay.
Chain of human kinase domain receptor (KDR, VEGFR-2) on cells (human) (P35968 20-1356): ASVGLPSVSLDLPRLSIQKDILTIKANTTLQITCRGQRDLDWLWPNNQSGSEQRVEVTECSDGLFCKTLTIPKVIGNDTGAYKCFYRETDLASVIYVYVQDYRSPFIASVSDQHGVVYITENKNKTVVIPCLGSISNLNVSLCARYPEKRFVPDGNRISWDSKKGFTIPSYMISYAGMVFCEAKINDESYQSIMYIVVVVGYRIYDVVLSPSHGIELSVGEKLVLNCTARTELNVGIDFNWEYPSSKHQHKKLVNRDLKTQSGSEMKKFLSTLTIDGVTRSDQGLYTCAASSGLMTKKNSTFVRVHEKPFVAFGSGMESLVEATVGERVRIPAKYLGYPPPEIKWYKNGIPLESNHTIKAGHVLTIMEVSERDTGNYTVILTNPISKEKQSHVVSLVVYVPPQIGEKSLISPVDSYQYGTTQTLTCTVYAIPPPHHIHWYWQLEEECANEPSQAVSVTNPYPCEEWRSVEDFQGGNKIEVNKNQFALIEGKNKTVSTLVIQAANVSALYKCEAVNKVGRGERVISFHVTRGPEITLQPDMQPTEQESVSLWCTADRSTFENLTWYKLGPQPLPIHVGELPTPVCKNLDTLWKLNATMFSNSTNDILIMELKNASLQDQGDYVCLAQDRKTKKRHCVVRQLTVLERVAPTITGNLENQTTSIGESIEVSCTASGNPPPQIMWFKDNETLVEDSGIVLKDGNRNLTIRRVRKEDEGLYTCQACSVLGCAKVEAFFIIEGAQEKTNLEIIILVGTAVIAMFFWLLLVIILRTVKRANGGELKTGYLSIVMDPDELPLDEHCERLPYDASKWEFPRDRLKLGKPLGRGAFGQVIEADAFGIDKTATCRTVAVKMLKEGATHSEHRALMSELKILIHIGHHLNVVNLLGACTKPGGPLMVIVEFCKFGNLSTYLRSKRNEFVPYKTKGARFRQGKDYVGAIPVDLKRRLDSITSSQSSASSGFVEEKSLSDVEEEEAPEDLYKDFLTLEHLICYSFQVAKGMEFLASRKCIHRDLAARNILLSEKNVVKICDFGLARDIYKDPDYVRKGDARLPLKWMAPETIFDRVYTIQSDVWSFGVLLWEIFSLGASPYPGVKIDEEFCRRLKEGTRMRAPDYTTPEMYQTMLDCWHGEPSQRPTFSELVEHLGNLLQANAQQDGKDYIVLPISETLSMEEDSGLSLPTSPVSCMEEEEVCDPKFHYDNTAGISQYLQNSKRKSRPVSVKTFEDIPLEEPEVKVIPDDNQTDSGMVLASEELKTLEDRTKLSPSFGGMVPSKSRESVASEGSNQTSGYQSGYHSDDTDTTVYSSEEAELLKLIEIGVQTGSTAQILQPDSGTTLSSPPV
The target of test [7] is T1, soluble mouse Flk-1, purified and biotinylated, expressed in Sf9 cells (mouse, UniProt P35918 20-762).
T1 construct: Captured on NeutrAvidin-coated plates; Only 'soluble' is said of the construct; also called biotinylated mouse flk-1 receptor; flk-1 receptor
T1 sequence (P35918 20-762 limits assumed): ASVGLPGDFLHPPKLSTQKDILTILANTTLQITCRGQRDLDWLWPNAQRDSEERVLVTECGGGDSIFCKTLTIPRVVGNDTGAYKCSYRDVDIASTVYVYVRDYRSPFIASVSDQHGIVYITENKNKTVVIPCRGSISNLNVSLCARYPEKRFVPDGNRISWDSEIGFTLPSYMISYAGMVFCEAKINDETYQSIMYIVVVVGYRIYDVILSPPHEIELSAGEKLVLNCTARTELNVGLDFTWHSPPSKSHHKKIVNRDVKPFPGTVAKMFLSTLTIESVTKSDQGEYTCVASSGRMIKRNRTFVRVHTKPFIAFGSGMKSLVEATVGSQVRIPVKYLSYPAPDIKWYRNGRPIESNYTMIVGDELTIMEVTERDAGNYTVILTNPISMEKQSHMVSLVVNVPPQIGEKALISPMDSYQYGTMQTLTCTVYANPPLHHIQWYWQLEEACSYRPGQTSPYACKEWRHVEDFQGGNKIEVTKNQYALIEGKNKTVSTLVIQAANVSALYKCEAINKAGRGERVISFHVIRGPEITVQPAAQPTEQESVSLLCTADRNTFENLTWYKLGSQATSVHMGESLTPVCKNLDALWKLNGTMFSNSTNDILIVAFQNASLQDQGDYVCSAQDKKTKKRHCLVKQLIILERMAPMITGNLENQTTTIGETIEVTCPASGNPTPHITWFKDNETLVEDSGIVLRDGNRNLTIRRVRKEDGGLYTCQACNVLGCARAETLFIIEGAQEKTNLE
The test is described as follows: ELISA, biotinylated soluble mouse Flk-1 on NeutrAvidin-coated plates; detection with 2C3.

Chain of FLK-1 on PAE/FLK-1 cells (P35968 20-1356): as the sequence (P35968 20-1356) above
Chain of human FLT-1 receptor (VEGFR-1) on PAE/FLT-1 cells (human) (P17948 27-1338): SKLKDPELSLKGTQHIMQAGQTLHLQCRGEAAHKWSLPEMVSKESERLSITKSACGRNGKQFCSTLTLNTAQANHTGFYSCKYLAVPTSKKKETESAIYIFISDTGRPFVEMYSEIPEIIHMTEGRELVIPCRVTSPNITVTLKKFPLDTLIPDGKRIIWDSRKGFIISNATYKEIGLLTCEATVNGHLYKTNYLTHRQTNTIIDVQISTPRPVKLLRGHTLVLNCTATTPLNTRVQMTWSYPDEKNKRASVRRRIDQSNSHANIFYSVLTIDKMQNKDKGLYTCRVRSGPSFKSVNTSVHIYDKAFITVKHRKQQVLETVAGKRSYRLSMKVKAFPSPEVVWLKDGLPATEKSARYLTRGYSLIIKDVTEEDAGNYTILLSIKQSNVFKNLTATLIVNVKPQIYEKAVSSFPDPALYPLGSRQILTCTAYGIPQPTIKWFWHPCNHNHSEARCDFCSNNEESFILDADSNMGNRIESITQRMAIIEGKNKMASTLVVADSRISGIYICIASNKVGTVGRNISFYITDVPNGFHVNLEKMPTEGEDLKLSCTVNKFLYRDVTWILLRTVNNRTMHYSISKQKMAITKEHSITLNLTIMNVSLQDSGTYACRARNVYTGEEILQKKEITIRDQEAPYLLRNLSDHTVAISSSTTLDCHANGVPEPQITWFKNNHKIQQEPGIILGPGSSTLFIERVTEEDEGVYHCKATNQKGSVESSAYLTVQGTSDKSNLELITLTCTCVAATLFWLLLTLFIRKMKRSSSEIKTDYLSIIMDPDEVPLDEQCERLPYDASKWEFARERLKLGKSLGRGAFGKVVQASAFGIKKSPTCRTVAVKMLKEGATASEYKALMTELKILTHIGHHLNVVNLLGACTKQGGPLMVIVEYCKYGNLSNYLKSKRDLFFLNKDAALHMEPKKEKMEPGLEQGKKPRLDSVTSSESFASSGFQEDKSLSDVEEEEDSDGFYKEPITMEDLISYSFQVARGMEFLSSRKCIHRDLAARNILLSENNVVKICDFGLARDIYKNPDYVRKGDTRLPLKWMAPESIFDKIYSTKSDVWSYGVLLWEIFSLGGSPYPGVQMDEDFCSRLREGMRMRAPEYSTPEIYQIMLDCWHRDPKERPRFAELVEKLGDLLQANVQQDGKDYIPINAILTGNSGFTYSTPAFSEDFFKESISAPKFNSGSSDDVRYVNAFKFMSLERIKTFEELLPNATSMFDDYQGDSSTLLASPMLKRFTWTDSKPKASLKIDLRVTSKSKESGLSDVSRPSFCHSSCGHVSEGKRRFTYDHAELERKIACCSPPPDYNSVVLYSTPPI

“GrB/VEGF121 fusion protein (mature granzyme B, G4S tether, VEGF121) (from UniProt P10144 21-247; P15692 27-147)”: in test [1], the IC50, clonogenic (colony-forming) assay on PAE/FLK-1 cells is 20 nM and the IC50, cytotoxicity on log-phase PAE/FLK-1 cells, XTT, 72 h was 10 nM. Also, in test [2], the clonogenic (colony-forming) assay on PAE/FLT-1 cells was greater than 100 nM and the cytotoxicity on log-phase PAE/FLT-1 cells, XTT, 72 h is greater than 200 nM.

With “VEGF121/rGel fusion toxin (VEGF121 at the N-terminus, G4S tether, recombinant gelonin) (from UniProt P15692 27-147; P33186 47-297)”, in test [3], the IC50 for VEGF121/rGel (nM), cytotoxicity, bEnd3 (log phase) is 1 nM and the Targeting index, bEnd3 (log phase) came out at 100. Further, the IC50, cytotoxicity on PAE/FLK-1 cells, XTT, 72 h in test [1] amounted to 1 nM. Moreover, in test [2], the IC50 for VEGF121/rGel (nM), cytotoxicity, PAE/FLT-1 (confluent) was greater than 5000 nM; the IC50 for VEGF121/rGel (nM), cytotoxicity, PAE/FLT-1 (log phase) was found to be 300 nM; the Targeting index, PAE/FLT-1 (confluent) was less than 2; the Targeting index, PAE/FLT-1 (log phase) worked out at 1. The same molecule displayed a dose inhibiting tube formation of PAE/Flt-1 cells on Matrigel by 50% in test [2] of 100 nM. In test [4], this molecule registered an IC50 for VEGF121/rGel (nM), cytotoxicity, ABAE (log phase) of 0.059 nM and a Targeting index, ABAE (log phase) of 8.9. In test [5], this molecule displayed an IC50, cytotoxicity on bone marrow-derived monocytes of 10 nM and an IC50, cytotoxicity on dividing RAW cells of 40 nM. Besides, in test [6], the IC50, cytotoxicity on log-phase PAE/KDR cells, 72 h (bladder tumor comparison experiment) was found to be 1 nM; the IC50 for VEGF121/rGel (nM), cytotoxicity, HUVEC (hypoxia) turned out to be 700 nM; the IC50 for VEGF121/rGel (nM), cytotoxicity, HUVEC (normoxia) turned out to be 800 nM; the IC50 for VEGF121/rGel (nM), cytotoxicity, PAE/KDR (confluent) amounted to 30 nM. Besides, in test [6], the IC50 for VEGF121/rGel (nM), cytotoxicity, PAE/KDR (log phase), 72 h turned out to be 0.5 nM; the Targeting index (ratio of IC50 of rGel to VEGF121/rGel), PAE/KDR (log phase) amounted to 600; the Targeting index, HUVEC (hypoxia) stood at 1; the Targeting index, HUVEC (normoxia) was 1. Besides, in test [6], the Targeting index, PAE/KDR (confluent) was 167 and the dose inhibiting tube formation of PAE/KDR cells on Matrigel by 50% came out at 1 nM.

B1: native human VEGF121 (ligand)
chain: APMAEGGGQNHHEVVKFMDVYQRSYCHPIETLVDIFQEYPDEIEYIFKPSCVPLMRCGGCCNDEGLECVPTEESNITMQIMRIKPHQGQHIGEMSFLQHNKCECRPKKDRARQEKCDKPRR
notes: mature; also called free VEGF121
Take B1: in test [7], the binding result was “binds”.
